Assay results: paper PMC6860424, “Structural analysis of the manganese transport regulator MntR from Bacillus halodurans in apo and manganese bound forms” (PLoS ONE, 2019)

Molecular target: the molecule itself
Assay: crystal structure; apo BhMntR; sitting-drop vapor diffusion at 296 K, 0.1 M sodium/potassium phosphate pH 6.2, 0.4 M magnesium formate; 2.3 Å; two subunits in the asymmetric unit

B1: manganese transport regulator MntR from Bacillus halodurans (natural protein, UniProt Q9K943 1-139, looked up)
chain: MPTPSMEDYLERIYLLIEEKGYARVSDIAEALEVHPSSVTKMVQKLDKSDYLVYERYRGLILTAKGKKIGKRLVYRHDLLEDFLKMIGVDSDHIYEDVEGIEHHLSWDAIDRIGDLVQYFQEDPSRLNDLREVQKKNEE
notes: MntR homologue BH2807 of Bacillus halodurans, a protein of 139 amino acids; gene amplified from genomic DNA into pET-28b(+) NdeI/XhoI; subunit described as residues 1-71 (domain 1) and 72-139 (domain 2); Homodimer in both crystal forms; also called BhMntR; BH2807; source: E. coli BL21(DE3) Star pLysS, purified (Ni IMAC, Superdex 200 gel filtration)
- stoichiometry N: 2
